{"source": "patent CN115073591A", "about": "(INST MILITARY MEDICINE ACADEMY MILITARY SCIENCES PLA, dated 2022)", "binders": {"B1": {"name": "单克隆抗体8G1 (antibody, V domains shown)", "VH": "EVLLVESGGGLVKPGGSLKLSCAASGFTFSSYAMSWVRQTPEKRLEWVATITNGGSYNYYPDSVKGRFTISRDNAKNTLYLQMSSLRSEDTAIYYCARSNPYYFDYWGQGTTLTVSP", "VL": "not shown"}}, "biological_target": "T1, 人hCD2(His标签)蛋白 (human, UniProt P06729 25-209)", "T1 construct": "not shown: His tag", "T1 sequence": "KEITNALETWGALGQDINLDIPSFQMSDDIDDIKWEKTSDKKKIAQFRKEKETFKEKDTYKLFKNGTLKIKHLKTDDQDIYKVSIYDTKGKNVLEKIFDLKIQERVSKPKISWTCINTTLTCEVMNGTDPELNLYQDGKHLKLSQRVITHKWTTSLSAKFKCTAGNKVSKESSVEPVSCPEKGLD", "test": "ELISA, plate coated with hCD2-His at 2 μg/mL"}
{"binder": "B1", "values": [{"measurement": "binding result", "value": "no binding (tested: 0.1μg/mL 8G1)"}]}
